Assay results taken from IntAct's records for PubMed 10069336.

Legend:
ena_drome ena = ena_drome ena (UniProt Q8T4F7)
abl_drome Abl = abl_drome Abl (UniProt P00522)
Sequence of UniProt P00522 (P00522 whole entry): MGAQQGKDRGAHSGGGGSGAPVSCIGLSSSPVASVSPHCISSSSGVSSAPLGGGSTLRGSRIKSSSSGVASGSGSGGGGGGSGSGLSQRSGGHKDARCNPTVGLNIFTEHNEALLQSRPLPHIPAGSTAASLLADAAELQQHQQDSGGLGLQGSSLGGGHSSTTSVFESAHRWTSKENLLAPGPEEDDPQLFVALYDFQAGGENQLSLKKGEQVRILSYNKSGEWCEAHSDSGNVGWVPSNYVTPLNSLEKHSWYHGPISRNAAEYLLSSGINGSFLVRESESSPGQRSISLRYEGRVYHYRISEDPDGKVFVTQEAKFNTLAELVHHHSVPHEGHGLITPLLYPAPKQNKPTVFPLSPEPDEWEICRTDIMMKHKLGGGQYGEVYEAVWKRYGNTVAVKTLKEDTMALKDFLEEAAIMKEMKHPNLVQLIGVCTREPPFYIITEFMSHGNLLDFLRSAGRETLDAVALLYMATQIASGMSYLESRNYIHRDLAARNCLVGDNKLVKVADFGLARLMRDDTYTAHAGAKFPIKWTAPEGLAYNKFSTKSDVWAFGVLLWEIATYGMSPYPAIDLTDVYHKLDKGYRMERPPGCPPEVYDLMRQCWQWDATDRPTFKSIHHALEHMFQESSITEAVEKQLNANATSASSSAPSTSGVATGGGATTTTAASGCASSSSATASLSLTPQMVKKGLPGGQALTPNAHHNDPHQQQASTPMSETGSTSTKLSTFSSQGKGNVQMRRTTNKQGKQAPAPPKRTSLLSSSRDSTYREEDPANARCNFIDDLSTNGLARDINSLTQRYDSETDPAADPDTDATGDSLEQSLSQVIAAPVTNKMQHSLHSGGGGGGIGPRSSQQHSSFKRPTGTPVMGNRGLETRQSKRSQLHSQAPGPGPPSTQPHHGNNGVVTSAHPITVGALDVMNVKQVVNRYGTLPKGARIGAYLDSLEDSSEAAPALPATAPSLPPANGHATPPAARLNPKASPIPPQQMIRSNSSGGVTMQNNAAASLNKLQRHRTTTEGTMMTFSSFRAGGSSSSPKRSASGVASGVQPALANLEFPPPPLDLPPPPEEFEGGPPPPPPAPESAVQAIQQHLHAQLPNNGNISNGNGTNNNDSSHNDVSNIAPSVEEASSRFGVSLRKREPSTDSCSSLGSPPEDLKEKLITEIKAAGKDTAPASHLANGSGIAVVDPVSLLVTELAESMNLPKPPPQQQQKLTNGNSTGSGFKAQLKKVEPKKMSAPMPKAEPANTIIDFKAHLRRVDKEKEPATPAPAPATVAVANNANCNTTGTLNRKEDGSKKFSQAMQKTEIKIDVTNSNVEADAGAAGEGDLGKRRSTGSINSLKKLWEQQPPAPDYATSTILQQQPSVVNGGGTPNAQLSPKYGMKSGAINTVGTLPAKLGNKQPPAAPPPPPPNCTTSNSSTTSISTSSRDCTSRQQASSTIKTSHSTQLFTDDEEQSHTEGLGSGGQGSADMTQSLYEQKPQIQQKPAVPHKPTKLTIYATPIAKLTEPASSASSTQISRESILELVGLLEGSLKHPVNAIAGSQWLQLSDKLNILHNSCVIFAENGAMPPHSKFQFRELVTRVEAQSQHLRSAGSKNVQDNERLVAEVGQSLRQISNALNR

Sequence of UniProt Q8T4F7 (Q8T4F7 whole entry): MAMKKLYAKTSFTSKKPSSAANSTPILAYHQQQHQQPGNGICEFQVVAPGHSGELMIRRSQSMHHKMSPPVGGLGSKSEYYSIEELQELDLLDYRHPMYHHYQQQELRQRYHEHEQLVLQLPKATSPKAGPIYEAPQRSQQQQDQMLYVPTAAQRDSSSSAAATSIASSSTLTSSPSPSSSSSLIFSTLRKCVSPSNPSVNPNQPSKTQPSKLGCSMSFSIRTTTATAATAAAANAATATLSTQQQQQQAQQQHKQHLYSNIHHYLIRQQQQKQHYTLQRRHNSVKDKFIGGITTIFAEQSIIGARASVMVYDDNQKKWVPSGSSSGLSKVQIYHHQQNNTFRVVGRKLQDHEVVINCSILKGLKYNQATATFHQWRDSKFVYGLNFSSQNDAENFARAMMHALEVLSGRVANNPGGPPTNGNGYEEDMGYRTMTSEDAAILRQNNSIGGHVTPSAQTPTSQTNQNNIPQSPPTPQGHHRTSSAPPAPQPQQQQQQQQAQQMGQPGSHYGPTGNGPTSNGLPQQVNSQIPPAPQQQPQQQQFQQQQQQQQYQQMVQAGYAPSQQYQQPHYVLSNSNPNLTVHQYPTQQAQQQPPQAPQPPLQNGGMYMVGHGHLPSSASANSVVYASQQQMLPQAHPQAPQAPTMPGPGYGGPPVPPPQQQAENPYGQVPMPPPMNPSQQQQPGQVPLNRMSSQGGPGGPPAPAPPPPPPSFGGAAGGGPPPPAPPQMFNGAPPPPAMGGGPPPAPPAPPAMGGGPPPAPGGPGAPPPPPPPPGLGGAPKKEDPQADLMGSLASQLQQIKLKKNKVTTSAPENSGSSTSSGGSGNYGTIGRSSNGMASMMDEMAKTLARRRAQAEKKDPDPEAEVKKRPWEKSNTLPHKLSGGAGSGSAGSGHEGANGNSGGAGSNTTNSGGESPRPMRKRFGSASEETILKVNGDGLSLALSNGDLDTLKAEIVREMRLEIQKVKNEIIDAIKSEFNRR

“Tyrosine-protein phosphatase Lar (Drosophila melanogaster (Fruit fly)), P16621 C1670S” was tested, and the “effect of a mutation on the interaction” value (ena_drome ena) was “decreasing interaction” and the “effect of a mutation on the interaction” value (abl_drome Abl) was “decreasing interaction”.
